Patent US20230235054A1 (BIOATLA, published 2023)
Residue numbers refer to the chain shown, from its start.

T1: recombinant human Nectin4 antigen (human, UniProt Q96NY8 32-349)
T1 construct: construct not described
T1 sequence (looked up): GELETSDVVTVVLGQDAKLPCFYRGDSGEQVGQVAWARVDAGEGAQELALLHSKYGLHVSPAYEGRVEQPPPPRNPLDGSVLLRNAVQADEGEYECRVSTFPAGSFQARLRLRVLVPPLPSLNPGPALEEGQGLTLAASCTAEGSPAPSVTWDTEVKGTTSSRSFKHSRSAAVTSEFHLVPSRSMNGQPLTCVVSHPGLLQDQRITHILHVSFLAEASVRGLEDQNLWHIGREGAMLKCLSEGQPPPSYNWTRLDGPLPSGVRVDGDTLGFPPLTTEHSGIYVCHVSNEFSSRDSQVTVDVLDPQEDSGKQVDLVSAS

T2: cynoNectin4-mFc (cyno, UniProt A0A2K5WES1 32-349)
T2 construct: Immobilized on the SPR chip; also called cyanoNectin4; not shown: mFc (mouse Fc)
T2 sequence: T1 sequence (looked up) with V39A, I230V

T3: RatNectin4-His (rat, UniProt D3ZET1 31-348)
T3 construct: Immobilized on the SPR chip; not shown: His tag
T3 sequence: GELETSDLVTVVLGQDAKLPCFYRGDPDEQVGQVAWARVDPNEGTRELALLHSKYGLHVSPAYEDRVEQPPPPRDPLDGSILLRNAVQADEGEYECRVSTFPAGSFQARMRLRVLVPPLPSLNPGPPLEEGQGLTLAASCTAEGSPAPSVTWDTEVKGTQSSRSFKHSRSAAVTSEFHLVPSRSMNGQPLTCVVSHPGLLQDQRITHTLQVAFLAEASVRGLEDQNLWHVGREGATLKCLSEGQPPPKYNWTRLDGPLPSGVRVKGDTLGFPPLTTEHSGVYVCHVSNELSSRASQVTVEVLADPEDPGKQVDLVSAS

B1: BAP-143-00-01 (antibody, V domains shown)
VH: EVQLVESGGGLVQPGGSLRLSCAASGFTFSSYNMNWVRQAPGKGLEWVSYISSSSSTIYYADSVKGRFTISRDNAKNSLSLQMNSLRDEDTAVYYCARAYYYGMDVWGQGTTVTVSS
VL: DIQMTQSPSSVSASVGDRVTITCRASQGISGWEAWYQQKPGKAPKFLIYAASTLQSGVPSRFSGSGSGTDFTLTISSLQPEDFATYYCQQANSFPPTFGGGTKVEIK
notes: Used as a conjugate with a linker payload (CAB ADC)
B2: BAP-143-00-03 (antibody, V domains shown)
VH: B1 VH
VL: B1 VL with E33L, P96D
notes: as for B1
B3: BAP-143-00-02 (antibody, V domains shown)
VH: B1 VH
VL: B1 VL with E33L, F94E
notes: as for B1
B4: BAP-143-00-05 (antibody, V domains shown)
VH: B1 VH with R98E
VL: B1 VL with E33L
notes: as for B1
B5: BAP-143-00-04 (antibody, V domains shown)
VH: B1 VH with M34D
VL: B1 VL with E33L
notes: as for B1
B6: BAP-143-00-06 (antibody, V domains shown)
VH: B1 VH with M104D
VL: B1 VL with E33L
notes: as for B1
B7: BAP-143-wildtype (antibody, V domains shown)
VH: B1 VH
VL: B1 VL with E33L
notes: 150 kDa used in SPR; also called BAP143-00-00; benchmark (BM)
B8: BAP-143-06-24-16 (antibody, V domains shown)
VH: EVQLVQSGAEVKKPGATVKISCKVSGFTFSSYNMNWIRQSPSRGLEWLGYISSSSSTIYYADSVKGRFTISRDNSKNTLYLQMNSLRAEDTAVYYCARAYYYGDDVWGQGTLVTVSS
VL: B1 VL with R24H, E33L
notes: as for B1
B9: BAP-143-06-33-16 (antibody, V domains shown)
VH: B8 VH
VL: B1 VL
notes: as for B1
B10: BAP-143-07-03-12 (antibody, V domains shown)
VH: B1 VH with V106K
VL: B1 VL
notes: as for B1

target: T1, recombinant human Nectin4 antigen; test: pH range ELISA, 30 ng/mL, pH of 50% binding activity
Experimental: 1) Coat ELISA plates with 100 μL of 1 μg/mL recombinant human Nectin4 antigen in carbonate-bicarbonate coating buffer [0462] 2) Cover plates with sealing film and incubate overnight at 4° C. […] 3) Decant plates and tap out residual liquid on a stack of paper towels [0464] 4) Wash wells twice by dispensing 200 μL of various pH incubation buffer to the wells and completely aspirate the contents [0465] 5) Add 200 μL of various pH incubation buffers (pH5.5, 6.0, 6.2, 6.5, 6.7, 7.0 and 7.4) to the wells. Cover with sealing film and place the plate onto a plate shaker (set to 200 rpm) for 60 minutes at room temperature [0466] 6) Decant plates and tap out residual liquid on a stack of paper towels [0467] 7) Serially dilute test substances in various pH incubation buffers (pH5.5, 6.0, 6.2, 6.5, 6.7, 7.0 and 7.4) to 30 ng/mL [0468] 8) Add 100 μL/well of diluted test substances to the plates [0469] 9) Cover with sealing film and place the plates onto a plate shaker (set to 200 rpm) for 60 minutes at room temperature. [0470] 10) Decant plates and tap out residual liquid on a stack of paper towels. […] 12) Dilute the HRP secondary antibody at 1:2500 in various pH incubation buffers (pH5.5, 6.0, 6.2, 6.5, 6.7, 7.0 and 7.4) [0473] 13) Add 100 μL HRP secondary antibody diluted in various pH incubation buffers (pH5.5, 6.0, 6.2, 6.5, 6.7, 7.0 and 7.4) to each well. […] 14) Cover with sealing film and place the plates onto a plate shaker (set to 200 rpm) for 60 minutes at room temperature. [0475] 15) Decant plates and tap out residual liquid on a stack of paper towels. […] 16) Wash wells three times by dispensing 200 μL of various pH wash buffer (pH5.5, 6.0, 6.2, 6.5, 6.7, 7.0 and 7.4) to the wells and completely aspirating the contents [0477] 17) Dispense 50 μL per well of the TMB substrate solution into all wells of plates.

Binder	pH inflection point [pH]
B1	6.59
B2	6.71
B3	6.7
B4	6.99
B5	6.81
B6	6.77

target: T2, cynoNectin4-mFc; test: SPR, cynoNectin4-mFc immobilized, pH 6.5
Experimental: (§1) Binding kinetics of anti-Nectin4 antibodies were measured by surface plasmon resonance using a SPR2/4 instrument (Sierra Sensors, Hamburg, Germany) and flat amine sensor chips. The SPR sensor contained four flow cells (FC1-FC4), each of which was addressed individually or in groups. huNectin4-His was immobilized in FC2, and cynoNectin4-mFc in FC4. No protein was immobilized in FC1 and FC3 which were used as control surfaces for FC2 and FC4, respectively.
(§2) All injections were done at a flow rate of 25 μL/min at 25° C. The sensor surface was activated with 1-ethyl-3-(3-dimethylaminopropyl)-carbodiimide (EDC) and N-hydroxysuccinimide (NHS) (200 mM/50 mM) for 480 seconds. HuNectin4-His (2 μg/mL in 10 mM NaAc, pH4.5) was injected for 480s and the surface was inactivated by injecting 1M ethanolamine-HCl for 480s. CynoNectin4 was immobilized using the same conditions as described for huNectin4-His, except that the cynoNectin4 was diluted into 10 mM NaAc buffer having pH 5.0. The control surface was activated and deactivated using the same conditions, but without injecting protein. PBST buffer (PBS pH 7.4 with 0.05% TWEEN20™) was used as running buffer for the surface preparation. The running solution was switched to PBST with 30 mM sodium bicarbonate with the pH adjusted as indicated in the figures before the analyte injections. The instrument was equilibrated with the running solution for one hour before the first analyte injection.
(§3) The off-rate was measured for 360s. The chip surface was regenerated after each cycle of interaction analysis by injecting 6 μL of 10 mM glycine (pH 2.0). Flow cells 1 and 3 without immobilized protein were used as control surfaces for reference subtraction.

Binder	Kd [nM]	koff [s⁻¹]	kon [M⁻¹ s⁻¹]
B7	0.52	–	–
B1	2.94	0.00134	457000
B2	1.86	0.00124	668000
B3	4.71	0.00179	380000
B4	3.96	0.00237	599000
B5	1.12	0.0018	1.6e+06
B6	0.398	0.000769	1.93e+06

target: T3, RatNectin4-His; test: SPR, RatNectin4-His immobilized, pH 7.4
Experimental: as §2, §3
In addition, data with buffer only as analyte (0 nM analyte) was subtracted from each run. Double subtracted data was fitted with the provided analysis software Analyzer R2 (Sierra Sensors) using a 1:1 binding model. A molecular weight of 150 kDa was used to calculate the molar concentrations of the analytes. RatNectin4-His was immobilized in FC3 using the same conditions as described for cynoNectin4.

Binder	Kd [nM]	koff [s⁻¹]	kon [M⁻¹ s⁻¹]
B7	0.135	–	–
B8	0.171	0.000178	1.04e+06
B9	1.94	0.000261	135000
B1	2.42	0.000875	361000
B10	1.31	0.000731	557000

target: T2, cynoNectin4-mFc; test: SPR, cynoNectin4-mFc immobilized, pH 6.0
Experimental: as §1, §2, §3

Binder	Kd [nM]	koff [s⁻¹]	kon [M⁻¹ s⁻¹]
B7	0.311	–	–
B8	0.207	0.000579	2.8e+06
B9	0.187	0.000273	1.46e+06
B1	1.85	0.00142	769000
B10	1.15	0.00113	983000
